Experiment [1] has as its target Histidine tagged PSMGFR peptide (MUC1* extra cellular domain peptide). The experiment can be described thus: SPR, Biacore 3000, His-tagged PSMGFR peptide on NTA-Ni SAM chip; hexamer signal divided by 3.
The target is the same in experiment [2]. The experiment can be described thus: SPR, Biacore 3000, His-tagged PSMGFR peptide on NTA-Ni SAM chip.

We go through one substance from US20240294590A1.

Chain of Histidine tagged PSMGFR peptide (MUC1* extra cellular domain peptide) (peptide, as listed by the source): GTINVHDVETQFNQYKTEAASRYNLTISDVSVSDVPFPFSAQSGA

As to “NM23-S120G-hexamer (non-refolded soluble-fraction preparation of NM23-H1 S120G) (from UniProt P15531 1-152) (ligand)”, the fold less bound than NM23-S120G-dimer in experiment [1] came out at 12 fold. This substance also came in with an amount of binding (RUs) in experiment [2] of 100 RU.
